Measurements: patent US20240209089A1 (SUZHOU SMARTNUCLIDE BIOPHARMACEUTICAL, published 2024)
Positions count from the first letter of the chain named.

B1: phage clone No. 46 (C46) (VHH)
VHH: QVQLVESGGGLVQAGGSLRLSCAASGVTFDDLAIGWFRQVPGKGREGVSTIGTSDGTAYYADSVKGRFTISSDNAKNTVYLQMNSLKPEDTAVYYCAVDLDYGLGSLLPMGYDYWGQGTQVTVSS
B2: anti-CD8α single domain antibody S6 (VHH, not shown: small tags and cut ends)
VHH: QVQLVESGGGLVQPGGSLRLSCAVSGTIFSINTMGWYRQVPGKQRELVATITSSGSTKYADSVKGRFTVSRDNAKRTVFLQMDSLKPEDTAVYYCHANDVGWGTVNAWGQGTLVTVSS
notes: Only the E. coli expression is described for this antibody
B3: phage clone No. 54 (S6) (VHH)
VHH: B2 VHH
B4: phage clone No. 42 (C42) (VHH)
VHH: QVQLVESGGGLVQAGGSLRLSCAASGLTFEDYAIGWFRQAPGKEREGISCIRIYDGNTYSAESVKGRFTISSDNAKNQVYLQINTLKPEDTAVYYCAAGSYYSCSVYPDYDMDYWGKGTLVTVSS
B5: phage clone No. 37 (C37) (VHH)
VHH: B4 VHH with V2L
B6: phage clone No. 2 (C2) (VHH)
VHH: B4 VHH with A14P, L27F, F29L, E30D, D31Y
B7: phage clone No. 20 (C20) (VHH)
VHH: QVQLVESGGGLVQPGGSLRLSCAASGSIFSINTMGWYRQAPGKQRELVATMHSTGSTNYADSVKGRFTISRDNAKKTVYLQMNSLEPDDTAVYYCHVDDTGWGTVDSWGQGTQVTVS
B8: anti-CD8α single domain antibody C20 (VHH, not shown: small tags and cut ends)
VHH: B7 VHH
notes: as for B2
B9: S13-cHis antibody (VHH)
VHH: QLQLVESGGGLVQPGGSLRLSCVVSGSIFAINTMGWYRQAPGKQRELVATMHSYGSTNYADSVKGRFTISRDNAKKTVYLQMNSLKPADTAVYYCHADDTGWGTVDSWGQGTQVTVSS
notes: HEK293 construct; an E. coli preparation is also described
B10: anti-CD8α single domain antibody S32 (VHH, not shown: small tags and cut ends)
VHH: B9 VHH with V23A, V24A, A30S, Y54T, A88D, A97V, T100M
notes: as for B2
B11: phage clone No. 70 (S22) (VHH)
VHH: B9 VHH with V23A, V24A, A30S, Y54T, A88D, A97V, T100M
B12: anti-CD8α single domain antibody S22 (VHH, not shown: small tags and cut ends)
VHH: B9 VHH with V23A, V24A, A30S, Y54T, A88D, A97V, T100M
notes: as for B2
B13: anti-CD8α single domain antibody S18 (VHH, not shown: small tags and cut ends)
VHH: QLQLVESGGGLVQPGGSLRLSCAASGSIFSINTMGWYRQAPGKQRELVATMTSHGSTNYADSVKGRFTISRDNSKNTVYLQMNSLKLQDTAVYYCNANDMGWGTVDAWGQGTLVTVSS
notes: as for B2
B14: phage clone No. 66 (S18) (VHH)
VHH: B13 VHH
B15: phage clone No. 45 (C45) (VHH)
VHH: B9 VHH with L2V, V23A, V24A, S27P, A30S, A40V, Y54T, A88D, A97V
B16: phage clone No. 30 (C30) (VHH)
VHH: B9 VHH with L2V, V24A, T50D, Y54T, T77K, A88D, A97V, T100R
B17: anti-CD8α single domain antibody C45 (VHH, not shown: small tags and cut ends)
VHH: B9 VHH with L2V, V23A, V24A, S27P, A30S, A40V, Y54T, A88D, A97V
notes: as for B2
B18: anti-CD8α single domain antibody C30 (VHH, not shown: small tags and cut ends)
VHH: B9 VHH with L2V, V24A, T50D, Y54T, T77K, A88D, A97V, T100R
notes: as for B2
B19: phage clone No. 24 (C24) (VHH)
VHH: B9 VHH with L2V, V23A, V24A, S27P, A30S, Y54T, A88D, A97V, T112I
B20: phage clone No. 27 (C27) (VHH)
VHH: B9 VHH with Y54G, N73A, K75P, T100S, T112I
B21: phage clone No. 61 (S13) (VHH)
VHH: B9 VHH
B22: phage clone No. 53 (S5) (VHH)
VHH: QVQLVESGGGLVQAGGSLRVSCAASGGTFSSTAMGWFRQAPGKEREFVAAISWSGGYTYYADSVRGRFTISRDNALNTVSLQMNSLKPEDTAVYYCAADISGLDTVAAGIFTEPNIDYWGKGTLVTVSS
B23: phage clone No. 77 (S29) (VHH)
VHH: QLQLVESGGGLVQPGGSLRLSCTASGIIFSINTMGWYRQAPGKQRELVADISSFGSTNYADSVKGRFTISRDNAKNSVYLQMNSLKPEDTAVYYCNAHDKGWGTVDSWGQGTQVTVSS
B24: anti-CD8α single domain antibody S7 (VHH, not shown: small tags and cut ends)
VHH: QLQLVESGGGLVQPGGSLRLSCAASGSIFSINGMGWYRQAPGKQREAVAVITSGGKIDYLDSVKGRFTISRDSAKNTVALQMNSLKPEDTAVYYCNAYGDVRRGEVRWGQGTQVTVSS
notes: as for B2
B25: phage clone No. 55 (S7) (VHH)
VHH: B24 VHH
B26: anti-CD8α single domain antibody S23 (VHH, not shown: small tags and cut ends)
VHH: B24 VHH with L2V, A47L, V50A, I57T, R102Q
notes: as for B2
B27: phage clone No. 71 (S23) (VHH)
VHH: B24 VHH with L2V, A47L, V50A, I57T, R102Q
B28: phage clone No. 29 (C29) (VHH)
VHH: QVQLVESGGGLVQAGGSLRLSCVASGFTSDDYVIGWFRQAPGKEREGVSCISSSDGTTNYADSVKGRFTISSDNAKNTVYLQMNSLKPEDTAVYYCAADPMRVCPYSGTYYGILGFGTSGQGTQVTVSS

How the values were obtained:
CD8α-Fc fusion protein [1] = biological target: T1, CD8α-Fc fusion protein (human); experiment: phage ELISA on coated CD8α-Fc
T1 construct: also called CD8 α-Fc protein; CD8α-Fc tag antigen
T1 sequence (chain, as listed by the source): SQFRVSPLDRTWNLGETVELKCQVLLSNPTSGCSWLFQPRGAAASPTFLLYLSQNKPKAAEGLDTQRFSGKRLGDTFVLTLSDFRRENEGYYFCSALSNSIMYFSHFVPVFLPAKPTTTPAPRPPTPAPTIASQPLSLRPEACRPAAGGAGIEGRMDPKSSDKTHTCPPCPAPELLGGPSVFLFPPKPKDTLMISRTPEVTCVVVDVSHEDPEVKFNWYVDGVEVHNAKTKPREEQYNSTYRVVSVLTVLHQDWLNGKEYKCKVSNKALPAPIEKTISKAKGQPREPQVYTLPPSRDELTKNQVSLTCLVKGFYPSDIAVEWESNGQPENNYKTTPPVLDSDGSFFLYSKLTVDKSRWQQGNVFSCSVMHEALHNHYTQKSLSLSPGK
Procedure: After 3-4 rounds of panning, 96 clones were randomly picked from the plate subjected to the last round of panning for identification. 96 single colonies were randomly picked and respectively cultured to produce and purify phages. The plate was coated with CD8α-Fc fusion protein at 4° C. overnight, then blocked with 3% BSA, and reacted for 1 hour at 37° C. Subsequently, the phage supernatant obtained after infection was added into each well (the control group was blank phage), and incubated for 1 hour at 37° C. After PBST washing, horseradish peroxidase labeled anti-M13 secondary antibody (purchased from Beijing Yiqiao Shenzhou Biotechnology Co., Ltd.) was added, and reacted for 1 hour at room temperature. After washing, a tetramethylbenzidine (TMB) chromogenic solution was added and an absorption value at 450 nm was read. Meanwhile, the plate was coated with an Fc protein at 4° C. overnight, blocked with 3% BSA, and reacted for 1 hour at 37° C. After washing, the phage supernatant obtained after infection (the control group was blank phage) was added to react for 1 hour at 37° C. After washing, the horseradish peroxide labeled anti-M13 secondary antibody (purchased from Beijing Yiqiao Shenzhou Biotechnology Co., Ltd.) was added to react for 1 hour at room temperature. After that, a TMB chromogenic solution was added and an absorption value at 450 nm was read. Where, when a ratio obtained by an OD value being divided by an OD value of blank control was >=4, it was judged that a candidate antibody could bind the CD8α-Fc protein; meanwhile, a ratio obtained by the CD8α-Fc binding OD value of the above antibody capable of binding the CD8 α-Fc antigen protein being divided by the Fc protein binding OD value was >=5, it was considered that the candidate antibody could specifically bind the CD8α part rather than the Fc part. […] The bacteria in candidate clone well were transferred to an LB liquid culture medium containing 100 μg/mL ampicillin so as to perform plasmid extraction and sequencing.

[2] = biological target: T2, human CD8α full-length protein (human, UniProt P01732 22-235); experiment: flow cytometry on MC38-CD8α cells, secondary antibody-PE
T2 construct: whole, on cells; The same entry is used for MC38-CD8α transfectants and for human CD8+ T cells from peripheral blood; the assay field says which cells; also called cell surface CD8α; MC38-CD8α cells
T2 sequence (P01732 22-235): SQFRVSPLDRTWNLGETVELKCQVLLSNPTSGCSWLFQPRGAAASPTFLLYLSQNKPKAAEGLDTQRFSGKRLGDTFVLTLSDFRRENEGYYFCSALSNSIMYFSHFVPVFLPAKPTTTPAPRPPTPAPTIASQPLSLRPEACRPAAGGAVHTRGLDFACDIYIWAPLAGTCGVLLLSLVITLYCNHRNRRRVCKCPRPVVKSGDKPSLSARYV
Procedure: Mouse colon cancer MC38 cell lines stable transfected with human CD8α full-length protein gene were constructed to obtain MC38 cells (MC38-CD8α cells) stably expressing human CD8α proteins on the cell membrane. Prior to use, the cells were cultured to >90% convergence. The anti-CD8α single domain antibody was used to perform flow cytometry on these cells for quantitative analysis of indirect immunofluorescence staining so as to determine the quantity of receptors on surface of each cell.
The cells were collected and suspended to a concentration of 2.5×10⁶ cells/mL. 200 μL of cell aliquot samples were mixed with 20 μL of primary antibody, and the obtained mixture was incubated for 30 min on ice. The cells were centrifuged, washed and re-suspended, then 5 μL of secondary antibody-PE conjugate was added, and then the above mixture was incubated for 30 minutes on ice. The cells were washed twice, re-suspended and underwent flow cytometry on BD FACSCelesta™. For each tube, at least 5×10⁴ events were collected. All the analyses were single colors, and PE was detected in […].

CD8α-Fc fusion protein [3] = biological target: T1, CD8α-Fc fusion protein; experiment: ELISA on coated CD8α-Fc, relative to C2-cHis control
Procedure: (§1) The CD8 α-Fc protein was transiently expressed by HEK293 and purified by protein A affinity chromatography. The plate was coated with the obtained CD8α-Fc protein in a concentration of 0.5 μg/well at 4° C. overnight, and then the gradient dilution series of the obtained anti-CD8α single domain antibody protein was added to react for 1 hour at room temperature. After washing, anti-his horseradish peroxidase labeled antibody was added to react for 1 hour at room temperature. After washing, a chromogenic solution was added, and an absorption value at 450 nm was read. The data processing and plotting analysis were performed by using software SotfMaxPro v5.4. […] Of the 10 selected antibodies (see Table 5 for details), the relative activities of different anti-CD8α single domain antibodies were compared by using C2-cHis as control, so as to reflect the affinity of the antibodies on CD8α. Of the 10 tested antibodies, C37, C42, C46, S5 and S36 have relatively high binding activity.

CD8α-Fc fusion protein [4] = biological target: T1, CD8α-Fc fusion protein; experiment: ELISA on coated CD8α-Fc, anti-his-HRP, four-parameter fit
Procedure: as §1

| Binder | OD450 (CD8α-Fc fusion protein [1]) | Positive rate (%) [2] | other results |
| --- | --- | --- | --- |
| B1 | 2.35 | – | – |
| B2 | – | 97.5% | – |
| B3 | 1.3 | – | – |
| B4 | 3.18 | – | – |
| B5 | 3.2 | – | – |
| B6 | 3.21 | – | – |
| B7 | 3.19 | – | – |
| B8 | – | 98.9% | – |
| B9 | – | 96.3% | Relative activity (%) (CD8α-Fc fusion protein [3]): 142%; EC50 (CD8α-Fc fusion protein [4]): 2.89 ng/mL |
| B10 | – | 99.1% | – |
| B11 | 1.73 | – | – |
| B12 | – | 97% | – |
| B13 | – | 99.2% | – |
| B14 | 1.72 | – | – |
| B15 | 2.42 | – | – |
| B16 | 2.03 | – | – |
| B17 | – | 99.1% | – |
| B18 | – | 98.8% | – |
| B19 | 2.35 | – | – |
| B20 | 2.74 | – | – |
| B21 | 1.71 | – | – |
| B22 | 1.2 | – | – |
| B23 | 1.63 | – | – |
| B24 | – | 99.3% | – |
| B25 | 1.61 | – | – |
| B26 | – | 99.3% | – |
| B27 | 1.62 | – | – |
| B28 | 1.75 | – | – |
